Key:
[1] = target: aureolysin (Staphylococcus aureus, UniProt P81177); conditions: 100 nM aureolysin, 1 mM substrate, 37° C., 3 hr
Method: The hydrolysis of the substrate was performed in aureolysin activation buffer. The buffer contains 100 mM Tris-HCL, 1 mM CaCL2, pH 7.8, and 1 mM 3,4-dichloroisoumarine. 100 nM aureolysin and 1 mM substrate were added in the buffer, and then incubated at 37° C. for 3 hr.
(§1) All control degradation profiles was conducted as outlined in EXAMPLE 22 through EXAMPLE 26 utilizing the control peptides […] and PRRICV, identified as LAR-7047 and LAR-7048 respectively, as substrates.

[2] = target: T1, MMP-9 (Homo sapiens, UniProt P14780); assay: MMP-9 bioresponsive degradation assay; assay type: biochemical; conditions: 100 nM MMP-9, 1 mM substrate, room temperature, 3 hr
T1 construct: purchased Chemicon, Temecula, Calif
T1 sequence (P14780 107-707 limits assumed): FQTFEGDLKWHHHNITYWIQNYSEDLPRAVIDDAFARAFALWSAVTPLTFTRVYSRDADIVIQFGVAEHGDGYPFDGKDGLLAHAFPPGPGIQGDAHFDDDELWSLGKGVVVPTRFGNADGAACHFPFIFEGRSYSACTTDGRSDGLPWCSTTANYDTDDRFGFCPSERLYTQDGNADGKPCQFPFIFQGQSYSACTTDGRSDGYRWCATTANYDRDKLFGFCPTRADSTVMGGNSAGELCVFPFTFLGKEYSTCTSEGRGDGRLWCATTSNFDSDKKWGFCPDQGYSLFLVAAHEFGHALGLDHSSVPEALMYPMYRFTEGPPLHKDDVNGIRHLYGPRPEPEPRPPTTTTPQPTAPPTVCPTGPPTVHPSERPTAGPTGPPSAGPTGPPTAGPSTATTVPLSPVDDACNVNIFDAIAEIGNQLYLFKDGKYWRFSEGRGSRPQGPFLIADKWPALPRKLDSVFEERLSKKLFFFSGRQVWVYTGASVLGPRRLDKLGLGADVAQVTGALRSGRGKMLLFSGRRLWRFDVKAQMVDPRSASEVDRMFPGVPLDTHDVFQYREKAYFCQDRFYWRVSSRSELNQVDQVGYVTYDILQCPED
Method: The hydrolysis of the substrates were done in MMPs activation buffer. […] 100 nM MPP-9 was added in this activating buffer and incubated at 37° C. for 4 hr. to activate enzyme. After activating, the 1 mM substrates were added to be hydrolysis at room temperature for 3 hr.

[3] = target: V8 proteinase (Staphylococcus aureus, UniProt P0C1U8); conditions: 100 nM V8 proteinase, 1 mM substrate, 37° C., 3 hr
V8 proteinase, sequence (P0C1U8 69-336): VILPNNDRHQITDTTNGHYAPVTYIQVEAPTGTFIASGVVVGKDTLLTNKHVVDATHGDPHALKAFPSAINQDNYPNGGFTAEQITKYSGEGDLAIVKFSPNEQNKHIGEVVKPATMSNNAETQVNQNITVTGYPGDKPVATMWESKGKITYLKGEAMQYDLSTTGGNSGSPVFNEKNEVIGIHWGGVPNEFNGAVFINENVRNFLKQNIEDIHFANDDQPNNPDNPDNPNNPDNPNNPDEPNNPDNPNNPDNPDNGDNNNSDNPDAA
Method: The hydrolysis of the substrate was performed in V8 proteinase activation buffer. The buffer contains 100 mM Tris-HCL, 1 mM CaCl2, pH 7.8, and 10 mM o-phenanthroline. 100 nM V8 proteinase and 1 mM substrate were added in the buffer, and then incubated at 37° C. for 3 hr.
as §1

aureolysin, sequence (P81177 209-509): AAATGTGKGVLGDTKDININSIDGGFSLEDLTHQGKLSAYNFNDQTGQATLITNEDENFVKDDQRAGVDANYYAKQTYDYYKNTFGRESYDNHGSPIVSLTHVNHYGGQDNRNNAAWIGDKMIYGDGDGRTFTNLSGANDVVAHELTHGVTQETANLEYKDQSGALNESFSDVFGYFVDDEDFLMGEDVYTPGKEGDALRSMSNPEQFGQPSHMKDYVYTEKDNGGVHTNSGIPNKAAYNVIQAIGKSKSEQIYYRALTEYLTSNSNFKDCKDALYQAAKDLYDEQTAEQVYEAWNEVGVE

Substance | Degradation of peptide substrate by aureolysin [1] | Degradation of peptide substrate by MMP-9 (fragment observed) [2] | Degradation of peptide substrate by V8 proteinase [3]
Pro-arg-arg-ile-sys-val (PRRICV) [LAR-7048] | No degradation | No degradation | No degradation
Pro-arg-arg-arg-arg-pro-arg-gln-ile-thr-ala (PRRRRPRQITA) [LAR-7009, peptide targeted to MMP-9 (inflammation)] |  | produced specific fragment pick: 1121.66 corresponding to PRRRRPRQ sequence | 
val-phe-phe-arg-arg-gln-thr-ala (VFFRRQTA) [LAR-7047] | No degradation | No degradation | No degradation
